Experimental data taken from article PMC8602281 (Nature Communications, 2021).

Biological target: receptor-binding domain (RBD) of SARS-CoV-2 (SARS-CoV-2, UniProt P0DTC2)
Assay: SPR
Details: both partners purified

B1: trastuzumab Fab with LCB1 insertion (Fab)
VH: EVQLVESGGGLVQPGGSLRLSCAASGFNIKDTYIHWVRQAPGKGLEWVARIYPTNGYTRYADSVKGRFTISADTSKNTAYLQMNSLRAEDTAVYYCSRWGGDGGSDKEWILQKIYEIMRLLDELGHAEASMRVSDLIYEFMKKGGSGFYAMDYWGQGTLVTVSS
VL: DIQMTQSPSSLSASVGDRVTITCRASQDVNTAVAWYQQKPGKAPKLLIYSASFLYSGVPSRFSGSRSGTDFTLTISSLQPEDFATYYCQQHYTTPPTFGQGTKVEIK
notes: also called trast-LCB1; trastuzumab +LCB1
  Kd: 0.9 nM
